Reference: publication PMC7264293, “Multi-site-mediated entwining of the linear WIR-motif around WIPI β-propellers for autophagy” (Nature Communications, 2020)

What follows are substances tested against GB1-tagged ATG2A short fragment (1374-1404), the WIR-peptide (UniProt Q2TAZ0) (assay: ITC).
Chain of GB1-tagged ATG2A short fragment (1374-1404), the WIR-peptide (Q2TAZ0 1374-1404): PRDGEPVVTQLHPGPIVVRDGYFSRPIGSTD

Chain of WIPI3-Δloop, Q5MNZ6 F98A (Q5MNZ6 other isoform, or with tags, fused parts or gaps F98A | mutant): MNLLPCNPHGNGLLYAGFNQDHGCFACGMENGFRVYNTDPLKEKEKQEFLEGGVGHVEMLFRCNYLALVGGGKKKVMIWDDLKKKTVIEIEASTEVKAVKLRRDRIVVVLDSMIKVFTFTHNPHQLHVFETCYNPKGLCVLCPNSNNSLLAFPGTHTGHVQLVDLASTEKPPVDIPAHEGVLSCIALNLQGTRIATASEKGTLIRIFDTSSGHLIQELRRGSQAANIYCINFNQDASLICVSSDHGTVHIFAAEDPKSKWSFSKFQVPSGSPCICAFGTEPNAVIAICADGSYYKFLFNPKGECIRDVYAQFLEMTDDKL
Chain of WIPI3-Δloop, Q5MNZ6 Y65A (Q5MNZ6 other isoform, or with tags, fused parts or gaps Y65A | mutant): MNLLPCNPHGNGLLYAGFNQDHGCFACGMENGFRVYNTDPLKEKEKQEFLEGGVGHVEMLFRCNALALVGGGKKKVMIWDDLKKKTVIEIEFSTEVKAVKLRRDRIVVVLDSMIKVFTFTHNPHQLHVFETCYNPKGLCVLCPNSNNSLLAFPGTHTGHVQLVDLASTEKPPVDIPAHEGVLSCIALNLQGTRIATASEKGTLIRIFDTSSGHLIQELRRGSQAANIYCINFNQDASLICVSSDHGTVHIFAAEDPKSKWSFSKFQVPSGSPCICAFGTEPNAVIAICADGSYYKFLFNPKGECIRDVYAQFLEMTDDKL
Chain of WIPI3-Δloop, Q5MNZ6 I96A (Q5MNZ6 other isoform, or with tags, fused parts or gaps I96A | mutant): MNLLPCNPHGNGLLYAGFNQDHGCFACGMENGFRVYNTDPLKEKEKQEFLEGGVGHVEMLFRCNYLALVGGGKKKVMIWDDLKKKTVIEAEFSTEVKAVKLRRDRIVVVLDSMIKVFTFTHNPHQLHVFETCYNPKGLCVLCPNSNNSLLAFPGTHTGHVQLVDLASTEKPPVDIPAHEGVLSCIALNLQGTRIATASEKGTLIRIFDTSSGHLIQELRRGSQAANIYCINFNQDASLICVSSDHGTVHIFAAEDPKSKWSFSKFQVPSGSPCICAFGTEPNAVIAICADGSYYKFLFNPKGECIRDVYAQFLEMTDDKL
Chain of WIPI3-Δloop, Q5MNZ6 R62A (Q5MNZ6 other isoform, or with tags, fused parts or gaps R62A | mutant): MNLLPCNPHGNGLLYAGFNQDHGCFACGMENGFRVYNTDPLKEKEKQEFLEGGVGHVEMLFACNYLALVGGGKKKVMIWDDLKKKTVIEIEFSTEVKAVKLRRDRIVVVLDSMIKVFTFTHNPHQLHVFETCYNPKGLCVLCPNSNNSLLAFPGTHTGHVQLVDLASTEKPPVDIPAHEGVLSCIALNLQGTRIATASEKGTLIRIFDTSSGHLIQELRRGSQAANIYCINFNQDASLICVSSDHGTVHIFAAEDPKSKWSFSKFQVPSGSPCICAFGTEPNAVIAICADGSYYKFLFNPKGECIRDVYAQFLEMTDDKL
Chain of WIPI3-Δloop, Q5MNZ6 R109Q (Q5MNZ6 other isoform, or with tags, fused parts or gaps R109Q | mutant): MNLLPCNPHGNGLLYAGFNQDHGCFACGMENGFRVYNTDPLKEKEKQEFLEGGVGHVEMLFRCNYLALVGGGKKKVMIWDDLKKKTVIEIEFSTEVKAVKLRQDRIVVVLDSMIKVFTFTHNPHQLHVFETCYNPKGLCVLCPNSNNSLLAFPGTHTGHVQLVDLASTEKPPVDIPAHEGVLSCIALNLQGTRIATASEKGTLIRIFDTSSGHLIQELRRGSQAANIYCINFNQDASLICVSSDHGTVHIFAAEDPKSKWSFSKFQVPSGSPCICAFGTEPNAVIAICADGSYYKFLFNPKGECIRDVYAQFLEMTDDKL
Chain of WIPI3-Δloop, Q5MNZ6 F125A (Q5MNZ6 other isoform, or with tags, fused parts or gaps F125A | mutant): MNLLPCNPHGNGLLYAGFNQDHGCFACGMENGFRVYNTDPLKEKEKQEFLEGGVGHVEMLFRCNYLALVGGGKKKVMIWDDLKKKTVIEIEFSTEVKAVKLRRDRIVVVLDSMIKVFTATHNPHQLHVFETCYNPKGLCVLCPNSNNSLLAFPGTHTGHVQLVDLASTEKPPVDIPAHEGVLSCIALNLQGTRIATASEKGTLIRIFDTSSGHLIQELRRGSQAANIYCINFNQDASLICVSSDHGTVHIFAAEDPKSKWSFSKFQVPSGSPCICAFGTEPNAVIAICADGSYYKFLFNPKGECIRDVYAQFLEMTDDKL

Substance	Kd [µM]
WIPI3-Δloop, Q5MNZ6 F98A	31.6
WIPI3-Δloop, Q5MNZ6 F125A	244
WIPI3-Δloop, Q5MNZ6 I96A	40
WIPI3-Δloop, Q5MNZ6 R62A	72.5
WIPI3-Δloop, Q5MNZ6 R109Q	52.6
WIPI3-Δloop, Q5MNZ6 Y65A	76.1
